Here are results for one molecule from US20130045184A1 (published 2013).

The assay has as its target T1, sperm FA-1 derived peptide (peptide 1, 35 residue peptide designed from antigen FA-1), biotinylated (biotin at the C-terminus, printed as '(SEQ ID NO: 1) - - - Biotin').
T1 peptide: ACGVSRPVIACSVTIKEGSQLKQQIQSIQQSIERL
Description: phage ELISA, anti-phage HRP antibody (antibody to PVIII), OD. The method, then:
Infected E. coli TG-1 with panning output phages (as described above) were plated to yield individual colonies. These colonies were picked into 100 μl YTAG media in wells of a flat bottom sterile 96-well plate and grown at 30° C. shaker at 150 RPM ON. 10 μl of phage were transferred into a fresh 96-well plate containing 90 μl of YTAG+2.5 μl /ml (5×10⁸ CFU) of M13KO7 helper phage and grown at 37° C. without shaking for 30 min following shaking at 150 RPM for 30 minutes. Plates were centrifuged at 4000 RPM for 5 minutes at 14° C. and the supernatant was discarded. 200 μl /well of YTAK (with Kanamycin) was added and the plate was left to grow at 30° C. shaker at 150 RPM overnight. The bacteria plate was then centrifuged at 4000 RPM for 5 minutes at 4° C. and 100 μl of the supernatant mixed with 100 μl of PBST was used for the ELISA.
100 μl /well of antigen and control antigen were plated in ELISA plates at 4° C. overnight to coat the plates. The ELISA plates were washed once with washing buffer (300 μl/well of PBST) and blocked with 3% milk/PBS for 1 hr at room temperature (RT). […] The reaction was then stopped with […] of 1 M HCL solution plates were read plates at […]. Detection was achieved using a horseradish peroxidase (HRP)-tagged anti-phage antibody and the color resulting from the substrate-enzyme reaction was read with an automated ELISA reader.

B1: scFv J102 (scFv)
scFv: MAEVQLLESGGGLVQPGGSLRLSCAASGFTFSDHDMHWVRQAPGKGLEWVSGISWKSDSMAYRDSVKGRFTISRDNSKNTLYLQMNSLRAEDTAVYYCARDQEHFDFDYWGQGTLVTVSSGSAGGGGSGGGGSGGGGSDIVLTQPPSASGTPGQRVTISCSGSSSNLGSNTVNWYQQLPGKAPKLLIYDNNQRPSGVPDRFSGSKSGTSASLAISGLRSEDEADYYCAAWDDSLSGLVFGTGTKLTVL
notes: Human-derived scFv from a phage display library; also called Clone J102
In the case of B1, the binding result is “binds”.
